# Literature values as cited in patent publication US8232251B2, “Compounds for delivery of therapeutic and imaging moieties to nerve cells” (Manzanita Pharmaceuticals, Inc., priority 1998, dated 2012).
# Molecular target: T1, p75 (Homo sapiens, UniProt P08138)
# T1 sequence (P08138 29-427): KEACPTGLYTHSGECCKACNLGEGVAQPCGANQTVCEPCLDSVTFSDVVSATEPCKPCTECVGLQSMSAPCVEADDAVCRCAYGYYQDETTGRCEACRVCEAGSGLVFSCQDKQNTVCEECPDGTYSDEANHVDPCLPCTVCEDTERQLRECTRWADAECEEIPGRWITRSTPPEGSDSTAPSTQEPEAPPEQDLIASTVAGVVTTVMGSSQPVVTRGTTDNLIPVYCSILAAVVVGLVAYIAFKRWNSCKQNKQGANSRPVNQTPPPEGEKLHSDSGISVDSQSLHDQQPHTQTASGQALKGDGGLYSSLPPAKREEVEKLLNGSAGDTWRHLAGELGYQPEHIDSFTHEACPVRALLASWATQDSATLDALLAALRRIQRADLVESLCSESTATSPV
# Conditions: lower affinity binding to more abundant p75
substance,measurement,value
"NGF: nerve growth factor, first identified member of the neurotrophin family; used as binding agent B",Kd,1 nM
